The values below come from PMC3169630.

For assay [1], the target named is recombinant human Siglec-9 Fc fusion protein (human) (UniProt Q9Y336). Kind of assay: SPR; BIAcore 3000, CM5 chip; Siglec-Fc immobilised at moderate density (2000–7000 RU; capture with immobilized protein A or amine cross-link); gp120 10–500 nM in PBS or HBS-P injected at 20 µL/min; KD from kinetic curve fitting. Background: In SPR one partner is held on a chip, and binding of the other changes the refractive index at the surface.

Assay [2] concerns the target recombinant human Siglec-7 Fc fusion protein (human) (UniProt Q9Y286). The description is as above.
Assay [3] addresses recombinant human Siglec-3 Fc fusion protein (human) (UniProt P20138). The assay is described as above.
Assay [4] has as its target recombinant human Siglec-5 Fc fusion protein (human) (UniProt O15389). The assay is described as above.
In assay [5] the target is recombinant human Siglec-1-Fc (four N-terminal Ig domains of hSiglec-1 fused to the Fc regions of human IgG1) (human). Described as above.
The target in assay [6] is recombinant human Siglec-7 Fc fusion protein (human) (UniProt Q9Y286). In words: SPR; BIAcore 3000, CM5 chip; Siglec-Fc immobilised at high density (12000–20000 RU); gp120 in PBS or HBS-P injected at 20 µL/min; KD from kinetic curve fitting.
The target of assay [7] is recombinant human Siglec-3 Fc fusion protein (human) (UniProt P20138). The assay is described as above.
In assay [8] the target is recombinant human Siglec-5 Fc fusion protein (human) (UniProt O15389). The assay is described as above.

UniProt Q9Y336, sequence (Q9Y336 18-348): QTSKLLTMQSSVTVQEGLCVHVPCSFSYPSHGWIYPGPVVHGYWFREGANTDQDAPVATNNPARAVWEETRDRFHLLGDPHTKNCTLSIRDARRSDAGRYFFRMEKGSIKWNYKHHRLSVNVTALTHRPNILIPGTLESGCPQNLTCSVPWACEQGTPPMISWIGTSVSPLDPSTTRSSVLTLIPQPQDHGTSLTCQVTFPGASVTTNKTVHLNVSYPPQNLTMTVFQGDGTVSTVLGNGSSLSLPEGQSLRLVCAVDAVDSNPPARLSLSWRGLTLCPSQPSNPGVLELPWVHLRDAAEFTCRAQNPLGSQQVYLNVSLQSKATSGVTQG
UniProt P20138, sequence (P20138 18-259): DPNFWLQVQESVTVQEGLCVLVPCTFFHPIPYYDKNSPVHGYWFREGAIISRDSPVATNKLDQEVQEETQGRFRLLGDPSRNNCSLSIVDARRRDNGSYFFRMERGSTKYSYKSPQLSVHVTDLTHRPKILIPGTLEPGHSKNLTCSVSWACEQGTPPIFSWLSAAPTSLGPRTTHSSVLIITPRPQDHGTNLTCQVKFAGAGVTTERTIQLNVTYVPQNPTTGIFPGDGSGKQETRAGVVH
UniProt Q9Y286, sequence (Q9Y286 19-353): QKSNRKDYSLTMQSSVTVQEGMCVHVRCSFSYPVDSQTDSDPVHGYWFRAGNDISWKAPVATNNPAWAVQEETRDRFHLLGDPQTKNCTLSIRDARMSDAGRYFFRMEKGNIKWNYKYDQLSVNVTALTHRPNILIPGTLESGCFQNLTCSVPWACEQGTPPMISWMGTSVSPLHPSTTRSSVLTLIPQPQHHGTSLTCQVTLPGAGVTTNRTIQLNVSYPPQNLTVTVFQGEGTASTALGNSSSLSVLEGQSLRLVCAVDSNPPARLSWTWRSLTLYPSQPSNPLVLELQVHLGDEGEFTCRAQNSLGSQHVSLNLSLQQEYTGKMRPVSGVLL
UniProt O15389, sequence (O15389 17-441): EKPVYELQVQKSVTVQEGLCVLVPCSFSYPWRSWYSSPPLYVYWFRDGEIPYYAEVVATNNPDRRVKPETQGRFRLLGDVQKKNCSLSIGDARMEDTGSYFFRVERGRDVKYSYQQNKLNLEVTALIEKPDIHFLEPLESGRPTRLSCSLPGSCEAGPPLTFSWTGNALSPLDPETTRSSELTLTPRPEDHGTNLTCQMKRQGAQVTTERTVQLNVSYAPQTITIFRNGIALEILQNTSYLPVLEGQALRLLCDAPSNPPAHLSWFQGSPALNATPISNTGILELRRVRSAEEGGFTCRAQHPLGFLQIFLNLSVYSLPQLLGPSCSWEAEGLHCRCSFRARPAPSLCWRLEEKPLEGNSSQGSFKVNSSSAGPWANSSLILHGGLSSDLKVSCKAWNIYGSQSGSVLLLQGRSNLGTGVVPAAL

With “recombinant gp120 from the 92US715 HIV-1 isolate (natural protein)”, the Kd (commonly the equilibrium constant for the complex coming apart) in assay [1] amounted to 23 nM; in assay [2] it was 53400 nM; in assay [3], 57800 nM; in assay [4], 9400 nM; in assay [5], 130 nM; in assay [6], 40 nM. The Kd in assay [7] came out at 8 nM; in assay [8], 20 nM.
With “trimeric gp120 from the 93UG037 strain fused with a trimerization domain from T4 bacteriophage fibritin”, the equilibrium dissociation constant (Kd) in assay [1] turned out to be 80 nM; in assay [2] it was 2700 nM; in assay [4], 5100 nM; in assay [5], 900 nM.
On to “recombinant gp120 from the 92UG21-9 HIV-1 isolate (natural protein)”, for which the Kd came to 50 nM in assay [1]; 49200 nM in assay [2]; 3800 nM in assay [3]; 47100 nM in assay [4]; 80 nM in assay [5]; 50 nM in assay [6]. Moreover, the Kd was 80 nM in assay [7] and 50 nM in assay [8].
As for “recombinant gp120 from the SIVsmm PBj1.9 isolate (natural protein)”, the dissociation constant Kd was 270 nM in assay [1]; 35400 nM in assay [2]; 54500 nM in assay [3]; 50500 nM in assay [4]; 120 nM in assay [5]; 19 nM in assay [6]. The results for the Kd in assay [7] and in assay [8] were 180 nM and 14 nM, respectively.
Consider “recombinant gp120 from the 93MW959 HIV-1 isolate (natural protein)”, for which the figures for the Kd in assay [6], in assay [7] and in assay [8] were 20 nM, 12 nM and 15 nM, respectively.
Regarding “recombinant gp120 from the 93UG037 HIV-1 isolate (monomeric) (natural protein)”, the equilibrium dissociation constant (Kd) in assay [1] turned out to be 100 nM; in assay [2], 9900 nM; in assay [4], 20300 nM; in assay [5], 6300 nM; in assay [6], 94 nM; in assay [7] it was 51 nM. Also, the Kd in assay [8] came to 54 nM.
